Our source for the self-aminoacylation values is the supplement of paper PMC9233669.

The test system of one series is biotinyl-Ile-oxazolone. Put plainly: self-aminoacylation, catalytic enhancement (BIO) (fold over background); higher = more active; k-Seq, kA / k0A0; sequences stand for … in GGGAAUGGAUCCACAUCUACGAAUUC…UUCACUGCAGACUUGACGAAGCUG
In a few lines: (§1)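 Mutagenized RNA pools with a 21-nt variable region (0.43 μM) reacted with each biotinyl-aminoacyl-oxazolone at 2–1250 μM. Reactions ran in 50 μL HEPES/NaCl/KCl/MgCl2/CaCl2 buffer with 5% acetonitrile, pH 6.9–7.0, for 90 minutes at room temperature. Streptavidin-captured RNA was quantified by triplicate qPCR and Illumina sequencing, and per-sequence fraction reacted was fit to a pseudo-first-order model with 1000 bootstraps. Catalytic enhancement is median kA divided by the uncatalyzed rate, the low-activity peak of a bimodal Gaussian fit.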

In a further series the test system is biotinyl-Leu-oxazolone. As to the kind of experiment: self-aminoacylation, catalytic enhancement (BLO) (fold over background); higher = more active; k-Seq, kA / k0A0; sequences stand for … in GGGAAUGGAUCCACAUCUACGAAUUC…UUCACUGCAGACUUGACGAAGCUG
In a few lines:
as §1

The test system of another series is biotinyl-Val-oxazolone. As to the kind of experiment: self-aminoacylation, catalytic enhancement (BVO) (fold over background); higher = more active; k-Seq, kA / k0A0; sequences stand for … in GGGAAUGGAUCCACAUCUACGAAUUC…UUCACUGCAGACUUGACGAAGCUG
In a few lines:
as §1

Another series deals with biotinyl-Phe-oxazolone. As to the kind of experiment: self-aminoacylation, catalytic enhancement (BFO) (fold over background); higher = more active; k-Seq, kA / k0A0; sequences stand for … in GGGAAUGGAUCCACAUCUACGAAUUC…UUCACUGCAGACUUGACGAAGCUG
A digest of the protocol: as §1

Another series deals with biotinyl-Trp-oxazolone. As to the kind of experiment: self-aminoacylation, catalytic enhancement (BWO) (fold over background); higher = more active; k-Seq, kA / k0A0; sequences stand for … in GGGAAUGGAUCCACAUCUACGAAUUC…UUCACUGCAGACUUGACGAAGCUG
A digest of the protocol:
as §1

The subject of a further series is biotinyl-Met-oxazolone. As to the kind of experiment: self-aminoacylation, catalytic enhancement (BMO) (fold over background); higher = more active; k-Seq, kA / k0A0; sequences stand for … in GGGAAUGGAUCCACAUCUACGAAUUC…UUCACUGCAGACUUGACGAAGCUG
A digest of the protocol: as §1

Variants at the floor of the assay were thinned out.

Turning to “GUUCACCUAGGUCAUCGGGUU [Fam2.2 aminoacylation ribozyme variant]”, the self-aminoacylation with biotinyl-Ile-oxazolone came out at 7.61; in the series on biotinyl-Leu-oxazolone it was 17.9; in the series with biotinyl-Val-oxazolone, 6.82; in the series with biotinyl-Phe-oxazolone it was 51.7; with biotinyl-Trp-oxazolone it was 9.2; with biotinyl-Met-oxazolone it was 13.5.
In the case of “AUUAACCUAGGGCAUCGGGUG [Fam2.2 aminoacylation ribozyme variant]”, the self-aminoacylation in the series on biotinyl-Ile-oxazolone was determined as 2.45; with biotinyl-Leu-oxazolone it was 3.09; in the series on biotinyl-Val-oxazolone, 2.15; in the series on biotinyl-Phe-oxazolone it was 14.1; in the series with biotinyl-Trp-oxazolone it was 2.76; in the series on biotinyl-Met-oxazolone, 2.86.
For “CUACCUCAAACAAUAGGUCUG [Fam1A.1 aminoacylation ribozyme variant]”, the self-aminoacylation is 0.959 in the series on biotinyl-Ile-oxazolone; 0.846 in the series on biotinyl-Leu-oxazolone; 1 in the series with biotinyl-Val-oxazolone; 1.08 in the series on biotinyl-Phe-oxazolone; 0.691 in the series on biotinyl-Trp-oxazolone; 0.838 with biotinyl-Met-oxazolone.
On to “AUUCACCUGGGUCAUCGGGUU [Fam2.2 aminoacylation ribozyme variant]”, for which the self-aminoacylation was 4.39 in the series with biotinyl-Ile-oxazolone; 9.06 in the series on biotinyl-Leu-oxazolone; 5.13 with biotinyl-Val-oxazolone; 17.4 with biotinyl-Phe-oxazolone; 7.09 with biotinyl-Trp-oxazolone; 6.89 with biotinyl-Met-oxazolone.
For the sequence “AUUCACAUAGGCCAUCGGGUG [Fam2.2 aminoacylation ribozyme variant]”, the self-aminoacylation was 3.23 with biotinyl-Ile-oxazolone; 5.85 with biotinyl-Leu-oxazolone; 3.41 in the series with biotinyl-Val-oxazolone; 34.7 with biotinyl-Phe-oxazolone; 4.23 in the series with biotinyl-Trp-oxazolone; 4.86 in the series with biotinyl-Met-oxazolone.
For the sequence “CCACACUUGAAGCGAUCGGUC [Fam1B.1 aminoacylation ribozyme variant]”, the self-aminoacylation in the series with biotinyl-Ile-oxazolone worked out at 1.41; with biotinyl-Leu-oxazolone, 0.996; with biotinyl-Val-oxazolone, 1.39; with biotinyl-Phe-oxazolone, 1.67; in the series with biotinyl-Trp-oxazolone, 0.952; with biotinyl-Met-oxazolone it was 1.36.
Regarding “AAGUUUGCUAAUAGCCGCAAA [Fam3.1 aminoacylation ribozyme variant]”, the self-aminoacylation was 1.92 with biotinyl-Ile-oxazolone; 1.38 in the series with biotinyl-Leu-oxazolone; 1.58 with biotinyl-Val-oxazolone; 1.38 in the series with biotinyl-Phe-oxazolone; 1.3 with biotinyl-Trp-oxazolone; 1.86 in the series with biotinyl-Met-oxazolone.
As for “CUAUAUCAAACAAUCGGUCUG [Fam1A.1 aminoacylation ribozyme variant]”, the self-aminoacylation in the series on biotinyl-Ile-oxazolone turned out to be 0.752; in the series on biotinyl-Leu-oxazolone, 0.638; with biotinyl-Val-oxazolone, 0.634; in the series with biotinyl-Phe-oxazolone, 1.62; with biotinyl-Trp-oxazolone, 1.01; with biotinyl-Met-oxazolone it was 0.561.
“AUUACCCUGCUCACCGAGUGA [Fam2.1 aminoacylation ribozyme variant]”: the self-aminoacylation in the series on biotinyl-Ile-oxazolone stood at 2.76; with biotinyl-Leu-oxazolone it was 6.12; in the series on biotinyl-Val-oxazolone, 3.35; with biotinyl-Phe-oxazolone it was 39; in the series on biotinyl-Trp-oxazolone, 6.29; in the series on biotinyl-Met-oxazolone, 5.34.
Consider “AAGUUUGCUAUUAGUCGCAAG [Fam3.1 aminoacylation ribozyme variant]”, for which the self-aminoacylation in the series with biotinyl-Ile-oxazolone came to 0.848; with biotinyl-Leu-oxazolone, 0.76; in the series with biotinyl-Val-oxazolone it was 0.823; in the series on biotinyl-Phe-oxazolone, 1.08; in the series with biotinyl-Trp-oxazolone, 0.826; in the series with biotinyl-Met-oxazolone it was 0.814.
For the sequence “AUUACCCUGGCCAUCGAGUGA [Fam2.1 aminoacylation ribozyme variant]”, the self-aminoacylation worked out at 2.05 in the series on biotinyl-Ile-oxazolone; 3.27 in the series on biotinyl-Leu-oxazolone; 2.24 in the series with biotinyl-Val-oxazolone; 11.7 with biotinyl-Phe-oxazolone; 3.94 with biotinyl-Trp-oxazolone; 3.27 in the series on biotinyl-Met-oxazolone.
As to “AACUUUACUAAUAGUCGCAAG [Fam3.1 aminoacylation ribozyme variant]”, the self-aminoacylation is 2.07 with biotinyl-Ile-oxazolone; 2.26 in the series with biotinyl-Leu-oxazolone; 1.86 with biotinyl-Val-oxazolone; 6.76 with biotinyl-Phe-oxazolone; 2.92 in the series on biotinyl-Trp-oxazolone; 2.23 with biotinyl-Met-oxazolone.
Regarding “AAGUUUGCUUAUAGUCGCCAG [Fam3.1 aminoacylation ribozyme variant]”, the self-aminoacylation is 1.08 in the series with biotinyl-Ile-oxazolone; 0.933 with biotinyl-Leu-oxazolone; 0.955 in the series with biotinyl-Val-oxazolone; 0.665 with biotinyl-Phe-oxazolone; 1.08 in the series with biotinyl-Trp-oxazolone; 0.883 in the series with biotinyl-Met-oxazolone.
As to “CUACUUCAAACAAUCGGCUUG [Fam1A.1 aminoacylation ribozyme variant]”, the self-aminoacylation was determined as 1.27 with biotinyl-Ile-oxazolone; 1.21 with biotinyl-Leu-oxazolone; 1.35 in the series with biotinyl-Val-oxazolone; 2.59 in the series with biotinyl-Phe-oxazolone; 2.53 in the series with biotinyl-Trp-oxazolone; 1.1 with biotinyl-Met-oxazolone.
“AUUCAUCUAUGUCAUCGGGUG [Fam2.2 aminoacylation ribozyme variant]”: the self-aminoacylation in the series on biotinyl-Ile-oxazolone worked out at 4.09; in the series with biotinyl-Leu-oxazolone it was 8.74; with biotinyl-Val-oxazolone it was 3.8; in the series on biotinyl-Phe-oxazolone it was 50.7; with biotinyl-Trp-oxazolone, 6.27; with biotinyl-Met-oxazolone it was 6.63.
Regarding “AUUACCCUGGUCACCGAGUUA [Fam2.1 aminoacylation ribozyme variant]”, the self-aminoacylation in the series on biotinyl-Ile-oxazolone turned out to be 1.64; with biotinyl-Leu-oxazolone it was 1.26; in the series with biotinyl-Val-oxazolone, 1.75; with biotinyl-Phe-oxazolone it was 1.81; in the series with biotinyl-Trp-oxazolone, 2.34; in the series with biotinyl-Met-oxazolone it was 1.52.
As to “ACGAUUGCUAAUAGUCGCAAG [Fam3.1 aminoacylation ribozyme variant]”, the self-aminoacylation in the series on biotinyl-Ile-oxazolone was 1.35; with biotinyl-Leu-oxazolone, 1.57; in the series with biotinyl-Val-oxazolone, 1.43; in the series with biotinyl-Phe-oxazolone, 1.54; in the series on biotinyl-Trp-oxazolone, 0.96; in the series on biotinyl-Met-oxazolone, 1.23.
For the sequence “CCACACUUCAGUCAAUCGGUC [Fam1B.1 aminoacylation ribozyme variant]”, the self-aminoacylation was found to be 1.11 in the series with biotinyl-Ile-oxazolone; 1.03 in the series with biotinyl-Leu-oxazolone; 0.965 in the series on biotinyl-Val-oxazolone; 1.06 with biotinyl-Phe-oxazolone; 1.31 with biotinyl-Trp-oxazolone; 1.02 with biotinyl-Met-oxazolone.
Turning to “AUAACUCUGGUCAUCGAGUGA [Fam2.1 aminoacylation ribozyme variant]”, the self-aminoacylation is 3.06 in the series with biotinyl-Ile-oxazolone; 5.36 with biotinyl-Leu-oxazolone; 3.04 with biotinyl-Val-oxazolone; 19.5 in the series on biotinyl-Phe-oxazolone; 6.33 in the series with biotinyl-Trp-oxazolone; 5.54 in the series on biotinyl-Met-oxazolone.
In the case of “CUACUUCAAAAAAUCUGUCUG [Fam1A.1 aminoacylation ribozyme variant]”, the self-aminoacylation with biotinyl-Ile-oxazolone is 0.84; with biotinyl-Leu-oxazolone, 0.61; with biotinyl-Val-oxazolone it was 0.699; in the series with biotinyl-Phe-oxazolone, 1.36; with biotinyl-Trp-oxazolone, 0.797; in the series on biotinyl-Met-oxazolone it was 0.589.
In the case of “CUACUACAAACAAUGGGUCUG [Fam1A.1 aminoacylation ribozyme variant]”, the self-aminoacylation with biotinyl-Ile-oxazolone was found to be 1.07; in the series with biotinyl-Leu-oxazolone, 1.15; in the series on biotinyl-Val-oxazolone, 1.14; in the series on biotinyl-Phe-oxazolone it was 0.955; in the series with biotinyl-Trp-oxazolone, 1.69; with biotinyl-Met-oxazolone, 1.37.
